Positions count from the first letter of the chain named.

The target in one assay is yeast actin monomers (S. cerevisiae, UniProt P60010 1-375). Kind of assay: native gel or EMSA.
The target in assay [1] is T1, yeast capping protein Cap1/2p, purified (S. cerevisiae, UniProt P28495;P13517).
T1 sequence 1: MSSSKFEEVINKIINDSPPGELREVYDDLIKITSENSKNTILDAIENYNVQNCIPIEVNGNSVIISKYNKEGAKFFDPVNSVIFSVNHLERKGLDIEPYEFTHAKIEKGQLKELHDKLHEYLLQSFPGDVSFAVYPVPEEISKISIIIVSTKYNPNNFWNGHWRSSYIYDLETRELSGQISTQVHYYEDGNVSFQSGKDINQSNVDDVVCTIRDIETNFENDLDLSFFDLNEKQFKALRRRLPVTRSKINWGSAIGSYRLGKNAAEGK
T1 sequence 2: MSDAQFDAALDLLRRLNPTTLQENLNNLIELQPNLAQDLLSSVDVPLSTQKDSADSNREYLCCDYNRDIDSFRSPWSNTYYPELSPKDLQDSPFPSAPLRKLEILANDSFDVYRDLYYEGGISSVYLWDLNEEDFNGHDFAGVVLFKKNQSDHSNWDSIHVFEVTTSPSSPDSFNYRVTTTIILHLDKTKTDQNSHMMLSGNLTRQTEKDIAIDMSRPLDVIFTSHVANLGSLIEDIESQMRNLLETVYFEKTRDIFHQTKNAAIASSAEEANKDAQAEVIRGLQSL
Kind of assay: native gel or EMSA. (In general: In EMSA bound probe runs differently from free probe, usually more slowly.)

B1: yeast twinfilin (Twf1p), wild type, purified recombinant (natural protein)
chain: MSTQSGIVAEQALLHSLNENLSADGIVIIIAKISPDSTSVHQTQVARSFEELVQLASQEREPLYIFYKPEGLDKYFFVSFIPDGSPVRSRMLYASTKNTLARQVGSNSLSTEQPLITDAQDLVDLKNFDSARPAGQNKPLTHDEEMQIEINKQQALLRKNTSVKLVSQDSASPLSLTFRVNSEKPINEILDSEGKNLIIFQIDPSNETIQIVQSDTCPSVDELYIDLPGPSYTIFRQGDSSFFIYSCPSGSKVKDRMIYASNKNGFINYLKNDQKIAFSKVVEIGDFVELDKSLLMATNKEDSLDHGSNPDLPNKSNLKFNKPKGPLRKRRT
For B1, the binding result (in the assay with yeast actin monomers; in assay [1]) was “binds” throughout.

B2: Twf1-3p mutant yeast twinfilin (alanines in both ADF-H domains) (natural protein)
chain: B1 chain with R88A, R90A, K254A, R256A
For the molecule B2, the binding result in assay [1] was “binds”.
